system: Saccharomyces cerevisiae; test: transcriptional activation domain activity (GFP:mCherry ratio, weighted mean of sorted bins, harmonized to initial dataset scale) (arbitrary fluorescence ratio units); higher = stronger transcriptional activation; conditions: beta-estradiol 1 µM; induction time 4 h
Outline: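 The listed activation activity is a read-weighted mean of bin median fluorescence, averaged across barcodes and linearly mapped onto the initial dataset scale. Barcoded tiles, fused to an estradiol-inducible synthetic transcription factor, were integrated at URA3 in yeast diploids bearing a GFP reporter. Cells were held 4 hours at 30 °C in SC with 1 uM beta-estradiol, sorted into 8 GFP:mCherry bins, and sequenced, and tiles with fewer than 50 reads were excluded.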

Sequence | transcriptional activation domain activity
TISRLVFAECFAESCVMFLLLMFQALDVLEPSSRLLNWRISLYILMSMILLFV | 52800
TISYLILAGSDYFEWCYLSIYQYSTLCNSSLLDVWRDIQYLWILIMFIWNILP | 52100
TIVLEELRRASYWGRPSLERSWLLLDMTIKSFTGFIRLLDGDLARTICLFYLV | 76100
TIVLSAMQVGLATQFLVDDYAFSMASYVFSVFAILAPLSAIAAILFVLVLLFA | 49900
TKAATGGTASSSKPQLAVQKKQQPAEGKKQPVTQKLPPAAAQKLQQKAPATAA | 29300
TKCSLDKMLPMLLPLKDALVHMDLMEYYFQTGYLYYLAFSCFILLLYPPFMVL | 53800
TKFYPNKSIETQLMKNKYCDVVHLTRYAAWSNNKKDQDTSSQPLIDEIFGLYS | 61500
TKGEFHKIAVIFTSTVVAGMVIMYFWILKQIPFMVGLVVWGWVGISQGFFAVN | 55800
TKIGTGMGEQMLSREYYYIGTQLPLDRFLTFYYAHPGFHVNNIFIMLSVQLFM | 51100
TKLCTIGINCIFIIWHIADILIESPSHLPDIFTVFNVIISCSLFLLLFVYFVY | 27600
TKPAEASAADKKPEEAKPAEAPAPAAAPAAAEAPKAEEKPAPAPAPTEAPKAE | 21400
TKPAPKKAGGRPKKVVAEPEPAAEPSESEEPKLAPKRAGGRPKKVVAPVAEPE | 19400
TKQGHELLHQLRHLIIFREGMPCSDITLKLDIHVSKLVFVFLSAFEHGLCSKD | 58200
TKTVKDTTPATNHMDDDIAMFDSLATTQPIDIAASNQQNGEIAQLWDFNVDQF | 77600
TLAGMIRENDEEQKSRGITRIKELEIKCLIEGAYGINRPMHLFETAVVIAGGV | 54500
TLAPNGSSNLVHLFAAHSIGKVRSSLLSSLNRKFSSNPSSPCSYFLIFQLFTR | 61100
TLDTVMRDTANMDWVRFLPLSLLFTSFIFSPLSFSLFRMYVHALLFFCFTFTP | 49600
TLELFKLKLVRPASKVYHMGGCAELWGFLVMQNHFRDGEGGHFNSITIDVKWA | 59800
TLFTGMHKNIIRLLPYRVARILYILLRVVRPVELMPILKFWIPVGNNKANAAV | 40700
TLGFVGFVTTLKKVTLRRQFGLFCWIHISLFLIVVSSHFIVNSILEGLIWFWL | 74700
TLGFVVDRYFRVKNFVPEPFWTIKVMHHKDGKKVNFNWARHRLFDRMSVIILY | 64300

Sequence | transcriptional activation domain activity
TLHFFQPIAKWFGIKKSSKLIRFGEQGHAMAYFAVTSCWGLRVMRQLPTWWYR | 41500
TLHHKHVVLWNTSRQVATEVIRLPFSCSGKMLCLLLLPEAEDGLKRVHVVALS | 25600
TLHIVLVSYGMYFYLILNFANIAALLSPSWAFLVQVYLTCISDTVVRSVFFSR | 69200
TLHVCFVEMRLADVVVDFLSRCSATINLAFFDTRLWHPNLLPILGALPLQRLS | 87200
TLIHEPDQLLFFPFFLFALFLSFPSFLLPSFFLLFLLFYFFPSYLLLCLFSFI | 51700
TLKALCRFITWLSIEHIMGANLIYKLKAWLKMYRNLVIQCYIEIANLDIPTSV | 56900
TLKGIVLRNPVTLRLEEEEDDAANLTQYFVKCSEVDKFLLIQVMIKMRMIKGK | 46700
TLLASFVIDHLKEGVASDEIVLFAFADFQDTRSTNVVVLLRTLLAQLLDRCKP | 65200
TLLFQIVIAFIDILRHLSLYKIEIENDTICALVGASMNFSDHIYVAFNTLLAI | 49500
TLLIASLLVVLCLLRRFLLSILCNRDFYMIKFYTFFLYQILLCSLLKCLRLLW | 80500
TLLYLYTFSFLFPPLLFILILLHLHHLSSSHLFFIHSIILSHNKLWPLLFLLS | 53400
TLMVLCENSYTTISRFILLDSMLLFFTFTTMLCFARFHNLQSRSFSFQWWLWI | 51800
TLPFQIFMICDLTVPLKLNGFLVNGSLNLLGIMMVRVTFSCLGLAQLFQLIIC | 62100
TLPGGTTGEFGRDRPTTNAFGSSTGAFGAPAANNNPFGAPAQPAGAFGQPSAL | 44800
TLPQEDTQSTEDTKVEKKLVIASLLSRMLIPTIIMAPLLALTAKFVPVSILDD | 52400
TLQRIVLDFFTAPCFSDVIVADILTSFARVFGDLSTVFFTLVWGSCPHWIPPF | 61200
TLRQELPNFFIFGLNNTSIYSSNILLWEPRYTGLQIRGKWSYLMLAATIRWSL | 54000
TLRVDSLTGMIRIIRHVDFDGLPRPSGSGVITPFGIVFGGVCRGYWLWLWKVD | 35800
TLRVLLLQISPLAYARGLKDFLIHLISWTDGTWDSLDPLPWWWLYHVYWPLQF | 81000
TLRVSNLLCWFLLCLTSVPGLGIVYYTYFLLPDTPYCLWALCLYTKSFIAPLM | 63000
TLSGVLMLFWQPNGQRLIGNATLWCWIRPGLEFYRIVLNYGWIWIILGVNICT | 73100

Sequence | transcriptional activation domain activity
TLTDKCFGAFEDENAIHFHNFHVVSPKYMVILVNCLYMWDLMKTVGLRKPWSG | 68200
TLTLLLRERGYELFLLVHFIFVLYVNFLSCLSVRSPLCIVYYGAWPSMIVWGI | 64600
TLTQRLSGSMIYIWCSGGVVFAIVLALQVLVLFALLNVITCLEGHMLSIHGWP | 39900
TLTSPQGSDLASNSATQYKPDLEDFLMQNSNFNGLMINPSSLVEVVGGYNDPN | 83200
TLVEINGNQIRGSSELMDKDNIYLHLRRIFTCFQIEFLKLTGLPFLLREKLPG | 63400
TLWLLLLCLRCSTSVLALLTLLSCSSFPPFLGFHLSRALWPVLRCPLPSMLCS | 59400
TLYWSYGMYIMYNGPHWLNTSYYWIDYPHILISRQTKTYYLMQLAFWVQQVYT | 41600
TMDKQIKYFWSSPCKFISLIYFANRYIGILEAISEIARLGFIWLQNLADILLM | 43800
TMEMAWLDMGRFFYFLFFYFLFFLLSSFFVFFYSFIYFFFSLLLFFFILWLEM | 45900
TMFHGLLFHLCHGAAVLVVWSFHHVVCSMRDDEETLQVMEELDYVIHVLNAFA | 47800
TMHLNVVFISVVVNGFCSEHGFVSMRLWAVYKSLSLVLWMSFFIVLCWVGMIV | 53600
TMSMLCLEGFIIIYLLRETTLSFLDIIRCFSSMDPVALKLFVRCFLYTLVMCG | 77500
TMSTVMVVGSDDKKVKEVGEALKSKLGVKGGGKGSRWSGKFTGVWKDSREGAL | 27000
TMWHCMDLLFCVAPGRLIRETASGLYVHHCFECGTKLEPQPLHSLTITAYHLA | 52300
TMYYDAIWLMWKDHSLQGWEVAHNTFDQLHVVLDDHLLYPVLNLLMIVIILPD | 51200
TNAENSSQPSLAQWAKGREGVLMISSDVISNVQISIGKSRLASLLISLCLQRM | 47300
TNLLDRFQTYMERSRFHLLDLLFDFSSHFSAPLMKLAMQHARRWRRFSIFAFW | 45100
TNLYDHAVTPEILLEQLAYVDNFIPSLDNEFSNVDWNVNTTHNNANNNGADTF | 47300
TNNEFEGESDDFVHSPYLNSEADFSQILSSAPPVHHDPNETHQENQDIIDRFA | 66800
TNNWNPVHWDWNIFRQIVNFNWVLLFYFIFLLFSLFFHFIPVSCISIFYYFFS | 25100
TNPAAAVAAAVAAKKTDTEEETTPKEDKAEEAKPEEEKKEEKKEEKAAAKSRS | 33900

Sequence | transcriptional activation domain activity
TNPAFANSSLPPIHSSFSTLSNPPSIFCVLPPFLPSFPLSFPFFFSFPFFLFL | 52500
TNPDKIRLIPGFKYLQLVLGRDQYCREILAMMARMGFLMPKTMYSTLLRLWLL | 65200
TNSEEDALDAWDLCATKMSLALVQLVQMFEEKELLSSLNVLLRLVTRISTAIP | 45700
TNTGFGASNTPAGGAGGGGGIFGSGTSGFGGGTSAFGAANNNNAFGAKPAFGA | 45600
TPANSSSTMALVPKEEQKEEEEKSTPADSGSTTASVPKEEEKEEEKSTPADSG | 44400
TPDSLCEAVTDLVRDIWYPLMTWMEFANPASGYISLDAPLFRAVLSLFHHFFA | 42900
TPECLTKINWNVLRLSSYLSSVATSHFLELSTIIGITLIQLIWLLHPPCLLFL | 45400
TPEFHGQADVDTGILTLKKDEDIRDHPDAARFAEESKAARITKRGAREGLEHV | 22000
TPFALFSSCYALNATVDQDYPLLFRRCVLGDTLWVLAILLCILWSLLVCFAFW | 31300
TPFLFYRPLPPQYFCKFLLYYGGLVWWVLYSGFFFYFILGRGYRKIFLSYFCL | 53100
TPGGSSGGTGAAVASSFSVFGTGTDTVNSLRSPASANSLFSCRPTRGLITRNG | 58000
TPIDVETDDPDIYIKPALDGSLNLLTSIVRYGQVIRGLSSCIIHLFNNVHLVR | 43000
TPIFMLIRIMIIGAHGVYQTAYRIVTKTQWEDGREIEDVYTYVGNERIDIKIV | 28300
TPKKAKKSAERVDDSDASDDGDGYGGGGGEDGRKRAAKPKKGKRAAAGGGSAG | 26200
TPLLLFFWCLCWFLSRSWYVYCFCYLNDWYNKVMMLWNLFHHHRFLLLYTRGL | 35200
TPLRISLFLVRVRCRHPSYSKWLPVEIKRCGVLLMSRLSLSLYRIFLNHITLN | 59900
TPNNLTSFDDCHLIDGLELTYSDLLVLDDFLAFDFLGLDHFIFMVTPPWENVV | 81000
TPQCPPTPTPPPAPASKSRPPPHTPTSTRARNNPPPPSCACGGCTRATSGSRR | 33800
TPSSLLHLFPRVQEFLLFYSIHLSISWVWSCLILFYDVSFTIFSIFIILLLFL | 60300
TPSSTATTAAPAATSAATPSLFSKPATTSAAPATATAAASTPSGNLFGAKAAA | 47500
